Drawing on publication PMC6953194, this text covers Kd for one molecule.

By Kd is commonly meant the equilibrium constant for the complex coming apart. The low end stands for a tighter complex, the high end for a looser complex.

What all share (assay): SPR
In general terms: Surface plasmon resonance follows binding to a sensor surface in real time, without labels.

In assay [1] the target is VRC01 co‐expressed with human β1,4‐galactosyltransferase in the ΔXT/FT plant line (VRC01Gal) (human).
Assay [2] has as its target VRC01 expressed transiently in WT N. benthamiana (VRC01WT) (human).
Assay [3] addresses VRC01 expressed in the ΔXT/FT N. benthamiana plant line (VRC01ΔXF) (human).
The target in assay [4] is VRC01 antibody derived from HEK cells (VRC01HEK) (human).

Bounds are passed on as bounds.

Chain of VRC01 antibody derived from HEK cells (VRC01HEK) (human) (light, as listed by the source, chain 2 of 2, other chains not shown): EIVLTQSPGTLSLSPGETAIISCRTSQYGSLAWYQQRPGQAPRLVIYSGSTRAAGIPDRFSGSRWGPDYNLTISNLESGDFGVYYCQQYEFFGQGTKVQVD
Chain of VRC01 expressed transiently in WT N. benthamiana (VRC01WT) (human) (light, as listed by the source, chain 2 of 2, other chains not shown): as above
Chain of VRC01 expressed in the ΔXT/FT N. benthamiana plant line (VRC01ΔXF) (human) (light, as listed by the source, chain 2 of 2, other chains not shown): as above
Chain of VRC01 co‐expressed with human β1,4‐galactosyltransferase in the ΔXT/FT plant line (VRC01Gal) (human) (light, as listed by the source, chain 2 of 2, other chains not shown): as above

B1: recombinant human FcγRIIa ectodomain, polymorphic variant R131 (receptor)
chain: QAAAPPKAVLKLEPPWINVLQEDSVTLTCQGARSPESDSIQWFHNGNLIPTHTQPSYRFKANNNDSGEYTCQTGQTSLSDPVHLTVLSEWLVLQTPHLEFQEGETIMLRCHSWKDKPLVKVTFFQNGKSQKFSRLDPTFSIPQANHSHSGDYHCTGNIGYTLFSSKPVTITVQVPSMGSSSPMG
modifications: not checked
On to B1, for which the Kd was 1500 nM in assay [1], above 7 µM in assay [2], 780 nM in assay [3] and 937 nM in assay [4].
